Reference: article PMC6706427

Target: Flag-CLIC4-Y104A (dog)
Assay: co-IP; lysates of co-transfected 293T cells in RIPA buffer plus 0.5% CHAPS; anti-Flag or control antibody; Protein-G Dynabeads; 4 °C overnight; 4 washes; blots quantified with the Odyssey system, three independent repeats

percent reduction of co-precipitation against Flag-CLIC4 wild type: 40.4 % reduced
Substance: mCherry-Tsg101 (from UniProt Q99816 1-390) (natural protein)
